From patent US20230383005A1 (University of California, published 2023)

Assays:
[1] = target: human CD46 on the surface of living multiple myeloma cells (human), P15529; assay: cell-based or functional assay
[2] = target: T1, recombinant CD46-Fc fusion (human CD46 domains 1 and 2) (human, UniProt P15529 35-159); assay: BLItz biolayer interferometry, biosensor coated with YS5 IgG1, CD46-Fc at 100 to 400 nM; one value for all four runs
T1 construct: domain: domains 1 and 2; also called recombinant human CD46 protein fragment; recombinant CD46-Fc (domains 1 and 2); not shown: Fc from the pFUSE-Fc vector (Invivogen)
T1 sequence (looked up): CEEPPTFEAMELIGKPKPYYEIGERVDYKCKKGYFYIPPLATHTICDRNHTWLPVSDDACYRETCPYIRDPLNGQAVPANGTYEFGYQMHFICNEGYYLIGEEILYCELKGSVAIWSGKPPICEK

[3] = target: human CD46 on the surface of living multiple myeloma cells (human) (UniProt P15529); assay: FACS on living RPMI8226 cells, MFI fitted with a one-site specific binding model
[4] = target: T1, recombinant CD46-Fc fusion (human CD46 …); assay: BLItz label-free biosensor (ForteBio), sensor coated with YS5 IgG1, CD46-Fc (domains 1 and 2) in solution
[5] = target: human CD46 on the surface of living multiple myeloma cells (human) (UniProt P15529); assay: FACS on living MM1.S cells, MFI fitted with a one-site specific binding model

B1: CD46-ADC (anti-CD46 IgG1 YS5 conjugated to MMAF via the mcvcpab linker) (antibody, V domains shown)
VH: QVQLVQSGGGVVQPGRSLRLACAASGLTVNNYAMHWVRQAPGKGLEWVAVISYDGNNKYYADSVKGRFTISRDNSKNTLYLQMNSLRAEDTAVYYCAKGGGYFDLWGRGTLVTVSS
VL: QSVLTQPPSVSGAPGQRVTISCTGSSSNIGAGYDVHWYQQLPGTAPKLLIYGNNNRPSGVPDRFSGSKSGTSASLAITGLQAEDEADYYCSSYTSGTWLFGGGTKLTVL
modifications: here or on the partner: mcvcpab-MMAF on cysteines freed by TCEP reduction; average drug per antibody 3.3; sites not stated
With B1 as the binder, how does the EC50, killing of primary MM patient cells at 48 hours (Annexin V/PI FACS) [1] read?
The EC50, killing of primary MM patient cells at 48 hours (Annexin V/PI FACS) was less than 10 nM.

And the EC50, viability of MM1.S alone (luciferase, 96 hours) [1]?
Its EC50, viability of MM1.S alone (luciferase, 96 hours) is 2.25 nM.

And the EC50, viability of MM1.S in the presence of BM61 stromal cells [1]?
Its EC50, viability of MM1.S in the presence of BM61 stromal cells is 1.05 nM.

What about the EC50, viability of MM1.S in the presence of HS5 stromal cells [1] of the same binder?
The EC50, viability of MM1.S in the presence of HS5 stromal cells was 0.77 nM.

What about the EC50, viability of MM1.S in the presence of HS27A stromal cells [1] of the same binder?
Its EC50, viability of MM1.S in the presence of HS27A stromal cells is 0.92 nM.

B2: YS5 IgG1 (full-length human anti-CD46 IgG1) (antibody, V domains shown)
VH: QVQLVQSGGGVVQPGRSLRLACAASGLTVNNYAMHWVRQAPGKGLEWVAVISYDGNNKYYADSVKGRFTISRDNSKNTLYLQMNSLRAEDTAVYYCAKGGGYFDLWGRGTLVTVSS
VL: QSVLTQPPSVSGAPGQRVTISCTGSSSNIGAGYDVHWYQQLPGTAPKLLIYGNNNRPSGVPDRFSGSKSGTSASLAITGLQAEDEADYYCSSYTSGTWLFGGGTKLTVL
notes: also called anti-CD46 antibody; CD46 antibody
B2 was tested. Which kon [2] did it give?
The kon was 88000 M⁻¹ s⁻¹.

What about the Kd [3] of the same binder?
Its Kd is 1.19 nM.

And the Kd [4]?
Its Kd is 2.99 nM.

What about the Kd [5] of the same binder?
The Kd was 2.24 nM.
